According to the nanobody polyreactivity screen of Harvey et al. (2022):

Test: yeast display, Sf9 membrane polyspecificity reagent, FACS + sequencing; frameworks hold sequencing errors
How it was run: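 Galactose-induced (36–48 hours) yeast carrying a synthetic nanobody display library were exposed to 10% biotinylated, detergent-solubilized Sf9 membrane reagent at 4 °C for 1 hour. FACS followed streptavidin microbead enrichment, using low and high (top ~1%) gates for expression (anti-HA) and reagent binding (streptavidin). Colony PCR, MiSeq 2 × 250 sequencing and CDR-length filtering followed. Labels for polyreactivity reflect the gate of origin.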

Sequence	polyreactivity (PSR sort gate)
QVQLVESGGGLVQAGGSLRLSCAASGFIFARNAMGWYRQAPGKERELVAVISTRGRTYYADSVKGRFTISRDNAKNTVYLQMNSLKPEDTAVYYCNADKVIGYDYWGQGTQVTVSS	high polyreactivity
QVQLVESGGGLVQAGGSLRLSCAASGFIFARYAMGWYRQAPGKERELVAAISSSGSSSYYADSVKGRFTISRDNAKNTVYLQMNSLKPEDTAVYYCAAKDSKYRNSPLYNYWGQGTQVTVSS	high polyreactivity
QVQLVESGGGLVQAGGSLRLSCAASGFIFARYAMGWYRQAPGKERELVASITRRGGSTYYADSVKGRFTISRDYEKITVYLQMNSLKPEDTAVYYCARPNLLSGDYWGQGTQVTVSS	high polyreactivity
QVQLVESGGGLVQAGGSLRLSCAASGFIFARYAMGWYRQAPGKERELVATISYTGGRRYYADSVKGRFTISRDHANNTVYLQINSLKPEDTAVYYVNAVYSYDRQRHEYWGQGTQVTVSS	high polyreactivity
QVQLVESGGGLVQAGGSLRLSCAASGFIFASYAMGWYRQAPGKERELVAAISSSGGRTYYADSVKGRFTISRDNAKNTVYLQMNSLKPEDTAVYYCAAPRIYIPAEYYSWGQGTQVTVSS	high polyreactivity
QVQLVESGGGLVQAGGSLRLSCAASGFIFASYAMGWYRQAPGKERELVAAISYRGGTTYYADSVKGRFTISRDNAKNTVYLQMNSLKPEDTALYYCAADSPENRYNYWGQGTQVTVSS	high polyreactivity
QVQLVESGGGLVQAGGSLRLSCAASGFIFASYAMGWYRQAPGKERELVAAITQSRGITYYADSVKGRFTISRDNAKNTVYLQMNSLKPEDTAGYYCNTPLLKRTSRGRERNYWGQGTQVTVSS	low polyreactivity
QVQLVESGGGLVQAGGSLRLSCAASGFIFASYAMGWYRQAPWKERELVAAISYRGGTTYYADSVKGRFTISRDNAKNTVYLQMNSLKPEDTAVYYCAADSPENRYNDWGQGTQVTVSS	high polyreactivity
QVQLVESGGGLVQAGGSLRLSCAASGFIFATNAMGWYRQAPGKEREFVAAITSGGSTYYADSVKGRFTISRDNAKNTVYLQMNSLKPEDTAVYYCNARTYSRVTRQTYRYRPYDYWGQGTQVTVSS	high polyreactivity
QVQLVESGGGLVQAGGSLRLSCAASGFIFAYNAMGWYRQAPGKEREFVAAINSGGDSTYYADSVKGRFTISRDYANNTVYLQMNSLKPEDTAVYSCAAVIGNKRYYYWGQGTQVTVSS	low polyreactivity
QVQLVESGGGLVQAGGSLRLSCAASGFIFAYNAMGWYRQAPGKERELVAAISWSGGSTYYADSVKGRFTISRDNAKNTVYLQMNSLKPEDTAVYYCNKYIRYPFKRYGYWGQGTQVTVSS	high polyreactivity
QVQLVESGGGLVQAGGSLRLSCAASGFIFAYNAMGWYRQAPGKERELVAAISWSGGSTYYADYVKGRFTISRDNAKNTVYLQMNSLKPEDTAVYYCNAVSYYGARYDYWGQGTQVTVSS	high polyreactivity
QVQLVESGGGLVQAGGSLRLSCAASGFIFAYYAMGWYRQAPGKERELVAAISSRGGTYYADSVKGPFTISRDNAKNTVYLQMNSLKPEDTAVYYCAAASYTWVSLGYEYWGQGTQVTVSS	high polyreactivity
QVQLVESGGGLVQAGGSLRLSCAASGFIFAYYAMGWYRQAPGKERELVAAITNSGGSTYYADSVKGRFTISRDNAKNTVYLQMNSLKPEDTAVYYCNALHRIRYTPSSRYDYWGQGTQVTVSS	low polyreactivity
QVQLVESGGGLVQAGGSLRLSCAASGFIFAYYAMGWYRQEPGKERELVAAISSSGSTNYADSVKGRFTISRDNAKNTVYLQMNSLKPEDTAVYYCAADRVGGTPQAYVPSQFDYWGQGTQVTVSS	low polyreactivity
QVQLVESGGGLVQAGGSLRLSCAASGFIFDAYAMGWYRQAPGKERELVAAIDSGGSTDYADSVKGRFTISRDNAKNTVYLQMNSLKPEDTAVYYCNAERAYLWWYNFDYWGQGTQVTVSS	low polyreactivity
QVQLVESGGGLVQAGGSLRLSCAASGFIFDDNAMGWYRQAPGKERELVAAITSGGGSTYYADSVKGRFTISRDNAKNTVYLQMNSLIPEDTAVYYCNAVPSQHDEFDYWGQGTHVTVSS	low polyreactivity
QVQLVESGGGLVQAGGSLRLSCAASGFIFDDYAMGWNRQAPGKERELVAAITDSGDGTDYADSVKGRFTISRDNAKNTVYLQMNSLKPEDTAVYYCAAGLWYSYDYWGQGTQVTVSS	high polyreactivity
QVQLVESGGGLVQAGGSLRLSCAASGFIFDFYAMGWYRQAPGKERELVATINSSGTTNYADSVKGRFTISRDNAKNTVYLQMNSLKPEDTAVYYCATVEYLGHYTYDYWGQGTQVTVSS	low polyreactivity
QVQLVESGGGLVQAGGSLRLSCAASGFIFDKNAMGWYRQAPGKERELVAAISSGGGSTDYADAVKGRFTISRDNAKNPDYLHMNSLKPEDTAVYYCARYWDQLQQYVISFGRYGMDYWGQGTQVTVSS	high polyreactivity
QVQLVESGGGLVQAGGSLRLSCAASGFIFDNNAMGWYRQAPGKERELVADISESGGSTYYADSVKGRFTISRDNAKNTVYLQMNSLKPEDTAVYYCNADIESWYCEFDYWGQGTQVTVSS	low polyreactivity
QVQLVESGGGLVQAGGSLRLSCAASGFIFDRYAMGWYRQAPGKERELVAAISSGGSTYYADSVKGRFTISRDNAKNTVYLQMNSLKPEDTAVYYCAAESWLNFIYEYDYWGQGTQVTVSS	low polyreactivity

Sequence	polyreactivity (PSR sort gate)
QVQLVESGGGLVQAGGSLRLSCAASGFIFDRYAMGWYRQAPGKERELVAAISWTGGSTYYADSVKGRFTISRDNAKNTVYLQMNSLKPEDTAVYYCAVEYSLVYWSGVVDLGYWGQGTQVTVSS	high polyreactivity
QVQLVESGGGLVQAGGSLRLSCAASGFIFDTYAMGWYRQAHGKERELVAAIRWSGGRTYYGDSVKGRFTISRDNAKNTVYLQMNSMKPEDTAVYYCNVVVRYPYAYDYWGQGTQVTVSS	high polyreactivity
QVQLVESGGGLVQAGGSLRLSCAASGFIFDWYAMGWYRQAPGKERELVAAINESGGDTYYADSVKGRFTISRDNAKNTVYLQMNSLKPEDTAVYYCAARTYHRYDYWGQGTQVTVSS	high polyreactivity
QVQLVESGGGLVQAGGSLRLSCAASGFIFDYNAMVWYRQAPGKERELVAAISISGGGTYYADSVKGRFTISRDNAKNTVYLQMNSLKPEDTAVYYCATAGRYDAYDYWGQGTQVTVSS	low polyreactivity
QVQLVESGGGLVQAGGSLRLSCAASGFIFDYYAMGWYRQAPGKERELVAAIDDSGGSTYYADSVKGRFTISRDNAKNTVYLQMNSLKPEDTAVYYCNAGVGWHSYYSNYDYWGQGTQVTVSS	low polyreactivity
QVQLVESGGGLVQAGGSLRLSCAASGFIFDYYAMGWYRQAPGKERELVAAITRDGGGTYYADSVKGRFTISRDNEKNSVYLQMNSLKPEDTAVYYCAAETYWYYRANYDYWGQGTQVTVSS	high polyreactivity
QVQLVESGGGLVQAGGSLRLSCAASGFIFDYYAMGWYRQAPGKERELVAAITSRSGSTYYADSVKGRFTISRDNAKNTVYLQMNSLKPEDTAVYYCSRRFKYGSTAWRFYYWGQGTQVTVSS	high polyreactivity
QVQLVESGGGLVQAGGSLRLSCAASGFIFDYYAMGWYRQAPGKERELVATISSSGGSTYYADSVKGRFTISRDYAKKTVYLQMNSLKPEDTAVYYCATGYTWVADSWEYYYWGQGTQVTVSS	low polyreactivity
QVQLVESGGGLVQAGGSLRLSCAASGFIFEDYAMGWYRQAPGKERELVAAIRSNDDSTYYADSVKGRFTISRDNAKNTVYLQMNSLKPEDTAVYYCAAVRYVHFGYDYWGQGTQVTVSS	high polyreactivity
QVQLVESGGGLVQAGGSLRLSCAASGFIFEGNAMGWYRQAPGKERELVAAISSSSGRTRYADSVKGRFTISRDNAKNTVYLQMNSLKPEDTAVYYCAARRQSTRPGFYYWGQGTQVTVSS	high polyreactivity
QVQLVESGGGLVQAGGSLRLSCAASGFIFEPYAMGWYRQAPGKERELVAAISSGGSTYADSVKGRFTISRDNAKNTVYLQMNSLKPEDTAVYYCAVRGYWGQGTQVTVSS	low polyreactivity
QVQLVESGGGLVQAGGSLRLSCAASGFIFEPYAMGWYRQAPGTERELVAAISATDDSTYYADSVKGRFTISRDNAKNTVYLQMNSLKPEDTAVYYCNATYYIIALPYDYWGQGTQVTVSS	low polyreactivity
QVQLVESGGGLVQAGGSLRLSCAASGFIFERYTMGWYRQAPGKERELVAAISDSGGSTYYADSVKGRFTISRDNAKNTVYLQMNSLKPEDTAVYYCAAKFRNYRPSKYYYWGQGTQVTVSS	high polyreactivity
QVQLVESGGGLVQAGGSLRLSCAASGFIFESNAMGWYIQAPGKERELVATITNGDRTYYADSVNGRFTISRDNAKNTVYLQMNSLKPEDTAVYYCNADFRAREVFLFDSWGQGTQVTVSS	low polyreactivity
QVQLVESGGGLVQAGGSLRLSCAASGFIFFANAMGWYRQAPGKESELVADITWSGGTTYYADSVKGRFTISRDNAKNTVYLQMNSLKPEDTAVYYCAARGWASTWYYYWGQGTQVTVSS	high polyreactivity
QVQLVESGGGLVQAGGSLRLSCAASGFIFFFYAMGWYRQAPGKERELVASISWNGGSTYYADSVKGRFTISRDNAKNTVYLQMNSLKPEYTAVYYCAVYSFRERVKAYRIYDYWGQGTHVTVSS	low polyreactivity
QVQLVESGGGLVQAGGSLRLSCAASGFIFFRNAMGWYRQAPGKERELVAAISRSGGITYYADSVKGRFTISRDNAKNTVYLQMNSLKPEDTAVYYCNAAKASREQWTSFDYWGQGTQVTVSS	high polyreactivity
QVQLVESGGGLVQAGGSLRLSCAASGFIFFRYAMGWYRQAPGKERELVATITSSGRTNYADSVKGRFTISRDNAKNTVYLQMNSLKPEDTAVYYCAAQRTGARRYRYDSWGQGTQVTVSS	high polyreactivity
QVQLVESGGGLVQAGGSLRLSCAASGFIFFRYSMGWYRQAPGKERELVATINLGGGSTYADSVKGRFTISRDNAKNTVYLQMTSLKPEDTAVYYSAADVANSIYDYWGQGTLVTVSS	low polyreactivity
QVQLVESGGGLVQAGGSLRLSCAASGFIFFYYAMGWYRQAPGKERELVAAITRGGSTNYADSVKGRFTISRDNAKNTVYLQMNRLKPEDTAVYYCNKQYGRRHYWGDDYYWGQGTQVTVSS	low polyreactivity
QVQLVESGGGLVQAGGSLRLSCAASGFIFGDYAMGWYRQAPGKERELVAAISRSGGRTYYADSVKGRFTISRDNAKNTVYLQMNSLKPEDTAVYYCAKSSLNIYEYWGQGTQVTVSS	high polyreactivity
